In article PMC4605270:

Biological target: Borrelia burgdorferi hybrid histidine kinase Hk1 periplasmic sensor domain D1 (Borrelia burgdorferi strain 5A4 NP1)
Assay: SEC

Q: “Borrelia burgdorferi hybrid histidine kinase Hk1 periplasmic sensor domain D1 (domain or fragment)” was tested. Which stoichiometry N did it give?
A: 2
